Laboratory results from publication PMC10170197 (Open Biology, 2023).

Legend:
GFP-G3BP1-H31YH62Y = target: T1, GFP-G3BP1-H31YH62Y (UniProt Q13283 1-466, H31Y | H62Y); test: co-IP; GFP-Trap/anti-GFP beads from lysates of U2OS ΔΔG3BP1/2 cells stably expressing GFP-G3BP1-WT or mutants; EE lysis buffer; Western blot for Caprin-1 and USP10; conditions: partners not purified
T1 construct: G3BP1, full length, fused to GFP; source: U2OS ΔΔG3BP1/2 cells, stably transfected, in lysate

[1] = target: T2, G3BP1-NTF2 (residues 1–139) (UniProt Q13283 1-139); test: nanoDSF (thermal shift); G3BP1-NTF2 with 10 x molar excess of peptide, 4% DMSO; 25 mM MES pH 6.1, 150 mM NaCl, 10 mM MgCl2, 10% glycerol; conditions: both partners purified
T2 construct: G3BP1, NTF2-like domain, residues 1–139; Purified as a dimer; also called G3BP1-NTF2-WT; NTF2-WT; source: E. coli, purified (IMAC, Superdex 75 SEC, TEV cleavage, IMAC flow-through, SEC)
T2 sequence (Q13283 1-139): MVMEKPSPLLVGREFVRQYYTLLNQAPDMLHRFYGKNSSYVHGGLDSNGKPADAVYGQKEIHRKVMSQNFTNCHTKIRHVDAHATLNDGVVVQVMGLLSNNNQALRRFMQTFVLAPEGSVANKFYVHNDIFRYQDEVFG

NTF2-H31YH62Y = target: T3, NTF2-H31YH62Y (UniProt Q13283 1-139, H31Y | H62Y); test: as above; conditions: both partners purified
T3 construct: G3BP1 NTF2-like domain (limits as the G3BP1-NTF2 construct, residues 1–139) with H31Y and H62Y; also called G3BP1-NTF2-H31YH62Y
T3 sequence (Q13283 1-139 H31Y/H62Y): as the sequence (Q13283 1-139) above, with H31Y, H62Y counted along it

[2] = target: T2, G3BP1-NTF2 (residues 1–139); test: nanoDSF (thermal shift); G3BP1-NTF2 with 10 x molar excess of peptide, 4% DMSO; 25 mM Na-acetate pH 5.1, 150 mM NaCl, 10 mM MgCl2, 10% glycerol; conditions: both partners purified
[3] = target: T2, G3BP1-NTF2 (residues 1–139); test: nanoDSF (thermal shift); G3BP1-NTF2 with 10 x molar excess of peptide, 4% DMSO; neutral pH (7.4); buffers as for ITC; conditions: both partners purified

T1 sequence (Q13283 whole entry H31Y/H62Y, the tested form may be a part): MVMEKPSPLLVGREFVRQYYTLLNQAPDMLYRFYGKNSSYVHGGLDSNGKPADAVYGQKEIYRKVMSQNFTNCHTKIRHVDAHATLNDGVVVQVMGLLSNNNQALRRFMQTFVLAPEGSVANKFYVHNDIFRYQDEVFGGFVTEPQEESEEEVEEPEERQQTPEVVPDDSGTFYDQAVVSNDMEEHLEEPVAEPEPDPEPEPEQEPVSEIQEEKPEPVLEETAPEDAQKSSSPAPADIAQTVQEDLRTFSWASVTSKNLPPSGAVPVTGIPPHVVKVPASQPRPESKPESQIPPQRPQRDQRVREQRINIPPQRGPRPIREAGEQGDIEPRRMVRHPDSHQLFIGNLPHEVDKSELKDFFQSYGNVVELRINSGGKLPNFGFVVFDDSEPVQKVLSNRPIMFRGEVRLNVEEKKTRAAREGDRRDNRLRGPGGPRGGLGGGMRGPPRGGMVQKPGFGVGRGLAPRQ

| Binder | reduction of co-precipitated Caprin-1 relative to wild-type G3BP1 (GFP-G3BP1-H31YH62Y) [%] | ΔTm (ligand-binding-induced stabilization of NTF2) [1] [°C] | binding result (NTF2-H31YH62Y) | ΔTm (ligand-binding-induced stabilization of NTF2) [2] [°C] | ΔTm (ligand-binding-induced stabilization of NTF2) [3] [°C] |
| --- | --- | --- | --- | --- | --- |
| Caprin-1, endogenous in U2OS ΔΔG3BP1/2 cells (natural protein, human (endogenous in U2OS), UniProt Q14444 1-709, looked up, Caprin-1, endogenous protein detected by Western blot; source: endogenous, U2OS ΔΔG3BP1/2 lysate) MPSATSHSGSGSKSSGPPPPSGSSGSEAAAGAGAAAPASQHPATGTGAVQTEAMKQILGVIDKKLRNLEKKKGKLDDYQERMNKGERLNQDQLDAVSKYQEVTNNLEFAKELQRSFMALSQDIQKTIKKTARREQLMREEAEQKRLKTVLELQYVLDKLGDDEVRTDLKQGLNGVPILSEEELSLLDEFYKLVDPERDMSLRLNEQYEHASIHLWDLLEGKEKPVCGTTYKVLKEIVERVFQSNYFDSTHNHQNGLCEEEEAASAPAVEDQVPEAEPEPAEEYTEQSEVESTEYVNRQFMAETQFTSGEKEQVDEWTVETVEVVNSLQQQPQAASPSVPEPHSLTPVAQADPLVRRQRVQDLMAQMQGPYNFIQDSMLDFENQTLDPAIVSAQPMNPTQNMDMPQLVCPPVHSESRLAQPNQVPVQPEATQVPLVSSTSEGYTASQPLYQPSHATEQRPQKEPIDQIQATISLNTDQTTASSSLPAASQPQVFQAGTSKPLHSSGINVNAAPFQSMQTVFNMNAPVPPVNEPETLKQQNQYQASYNQSFSSQPHQVEQTELQQEQLQTVVGTYHGSPDQSHQVTGNHQQPPQQNTGFPRSNQPYYNSRGVSRGGSRGARGLMNGYRGPANGFRGGYDGYRPSFSNTPNSGYTQSQFSAPRDYSGYQRDGYQQNFKRGSGQSGPRGAPRGRGGPPRPNRGMPQMNTQQVN | ~50 |  |  |  |  |
| RQRVQDLMAQMQGPYNFIQDSMLDFENQTLD (Used for co-crystallisation and as peptide ligand in nanoDSF; also called Caprin-1-derived SLiM; source: synthetic peptide) [Caprin-1^356–386 peptide] |  | 2.5 | binds | 5.5 | 3 |
